Results on two molecules are retold here after patent publication US20100104554A1 (FUSION ANTIBODIES LIMITED A CORPORATION OF GREAT BRITIAN, published 2010).

In assay [1] the target is T1, human cathepsin S (Calbiochem) (human, UniProt P25774 115-331). Kind of assay: cell-based or functional assay.
Assay [2] addresses T1, human cathepsin S (Calbiochem). Put plainly: fluorometric enzyme inhibition assay with Z-VVR-AMC, rates taken from progress curves. How it is done:
Enzymatic assays were used to ascertain the ability of the rCatSPP to inhibit the peptidolytic activity of human cathepsins S, L, K, V and B (Calbiochem). Assays were performed in triplicate in 96-well microtitre plates in the presence of 100 mM sodium acetate, 1 mM ethylenediaminetetraacetate (EDTA), 0.1% Brij and 1 mM: dithiothreitol (DTT) at pH 5.5. CatS activity was monitored using the fluorigenic substrate carbobenzloxy-L-valinyl-L-vahnyl-L-arginylamido-4-methyl coumarin (Z-Val-Val-Arg-AMC, 25 μM), assays for cathepsins L, K and V were performed using carbobenzloxy-L-phenylalanyl-L-arginylamido-4-methyl coumarin (Z-Phe-Arg-AMC, 25 μM) and assays for CatB were performed using carbobenzloxy-L-arginylamido -L-arginylamido-4-methyl coumarin (Z-Arg-Arg-AMG, 25 μM) as substrates. Purified rCatSPP was added to assays as required at various concentrations (0-1000 nM). All experiments were performed using a Cytofluor® 4000 spectrofluorimeter with excitation at 395 nm and emission at 460 nm. […]
The inhibition of CatS peptidolytic activity using CatSPP Fc was measured. The rCatSPP-Fc was assessed by fluorometric assay using the fluorogenic substrate Z-VVR-AMC to determine if the species had the ability to retain its inhibition of CatS after the addition of the Fc-domain without any negative effects on the kinetics. […]

For assay [3], the target named is T2, human cathepsin K (Calbiochem) (human, UniProt P43235 115-329).
T2 construct: also called CatK; Cat K
T2 sequence (looked up): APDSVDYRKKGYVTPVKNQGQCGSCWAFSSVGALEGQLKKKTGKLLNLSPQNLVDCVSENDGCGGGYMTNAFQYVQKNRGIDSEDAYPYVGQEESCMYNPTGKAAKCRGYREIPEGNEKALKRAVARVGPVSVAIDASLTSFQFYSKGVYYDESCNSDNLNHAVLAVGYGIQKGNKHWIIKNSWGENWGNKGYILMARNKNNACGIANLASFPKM
Kind of assay: fluorometric enzyme inhibition assay with Z-Phe-Arg-AMC, non-linear regression of progress curves. How it is done:
(§1) Enzymatic assays were used to ascertain the ability of the rCatSPP to inhibit the peptidolytic activity of human cathepsins S, L, K, V and B (Calbiochem). Assays were performed in triplicate in 96-well microtitre plates in the presence of 100 mM sodium acetate, 1 mM ethylenediaminetetraacetate (EDTA), 0.1% Brij and 1 mM: dithiothreitol (DTT) at pH 5.5. CatS activity was monitored using the fluorigenic substrate carbobenzloxy-L-valinyl-L-vahnyl-L-arginylamido-4-methyl coumarin (Z-Val-Val-Arg-AMC, 25 μM), assays for cathepsins L, K and V were performed using carbobenzloxy-L-phenylalanyl-L-arginylamido-4-methyl coumarin (Z-Phe-Arg-AMC, 25 μM) and assays for CatB were performed using carbobenzloxy-L-arginylamido -L-arginylamido-4-methyl coumarin (Z-Arg-Arg-AMG, 25 μM) as substrates. Purified rCatSPP was added to assays as required at various concentrations (0-1000 nM). All experiments were performed using a Cytofluor® 4000 spectrofluorimeter with excitation at 395 nm and emission at 460 nm. To confirm that the rCatSPP-Fc also had the ability to inhibit the activity of CatS, flurometric assays were performed using CatS, Z-Val-Val-Arg-AMC, 25 μM) in the presence of the rCatSPP-Fc (0 nM-200 nM).
(§2) Fluorescence was monitored for 30 mins and the RFU plotted over time to generate fluorometric progress curves. […] All fluorometric assays were performed in replicates of three.

The target of assay [4] is T3, human cathepsin L (Calbiochem) (human, UniProt P07711 114-333, limits assumed).
T3 construct: also called CatL; Cat L
T3 sequence (P07711 114-333 limits assumed): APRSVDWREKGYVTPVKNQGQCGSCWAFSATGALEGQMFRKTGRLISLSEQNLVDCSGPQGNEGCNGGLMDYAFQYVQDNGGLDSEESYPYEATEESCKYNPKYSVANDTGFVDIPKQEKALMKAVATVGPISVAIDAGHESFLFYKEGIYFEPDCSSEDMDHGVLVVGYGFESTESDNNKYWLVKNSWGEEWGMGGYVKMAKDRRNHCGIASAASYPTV
The assay is described as above. How it is done:
as §1, §2

Assay [5] addresses T4, human cathepsin V (Calbiochem) (human, UniProt O60911 114-334).
T4 construct: also called CatV; Cat V
The assay is described as above. How it is done:
as §1, §2

T4 sequence (O60911 114-334 limits assumed): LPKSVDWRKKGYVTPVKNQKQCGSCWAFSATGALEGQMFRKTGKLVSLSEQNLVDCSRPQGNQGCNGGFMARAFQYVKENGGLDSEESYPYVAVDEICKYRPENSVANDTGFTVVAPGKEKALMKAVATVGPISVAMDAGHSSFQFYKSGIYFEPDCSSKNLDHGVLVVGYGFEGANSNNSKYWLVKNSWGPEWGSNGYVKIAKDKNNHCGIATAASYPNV

B1: recombinant cathepsin S propeptide with C-terminal IgG2 Fc domain and N-terminal His-tag, expressed from pRSET A-Fc (Fc fusion)
chain: QLHKDPTLDHHWHLWKKTYGKQYKEKNEEAVRRLIWEKNLKFVMLHNLEHSMGMHSYDLGMNHLGDMTSEEVMSLMSSLRVPSQWQRNITYKSNPNR
notes: About 46 kDa, made in E. coli BL21 (DE3) pLysS; also called rCatSPP-Fc; CatSPP-Fc; not shown: N-terminal His-tag and leader from the pRSET A vector; IgG2 Fc domain engineered into the pRSET vector
Broadly, the Ki is a measure of affinity in units of concentration, obtained from inhibition or displacement. Low values mean tighter binding, high ones weaker binding. As to B1, the “EC50 of MDA-MB-231 tumour cell invasion (modified Boyden chamber, Matrigel)” value in assay [1] stood at 8.3 nM. Besides, in assay [2], the Ki came out at 8.9 nM.

B2: recombinant human cathepsin S propeptide (residues 17-113) with N-terminal hexahistidine tag, expressed from pQE30 (peptide)
chain: MRGSHHHHHHGSQLHKDPTLDHHWHLWKKTYGKQYKEKNEEAVRRLIWEKNLKFVMLHNLEHSMGMHSYDLGMNHLGDMTSEEVMSLTSSLRVPSQWQRNITYKSNPNRVDLQPSLIS
notes: also called rCatSPP; CatSPP
Take B2: the “EC50 of MDA-MB-231 tumour cell invasion (modified Boyden chamber, Matrigel)” value in assay [1] came to 78 nM. Also, the Ki in assay [3] was determined as 17.6 nM; in assay [4], 0.62 nM; in assay [5] it was 4.8 nM.
